Source: patent US20250027068
Substitutions are numbered along the chain they refer to.

Biological target: pooled human IgG

B1: PRT-114 (protein)
chain: MRNATEAYNEETPHQITSVWTKGVTPPTPEQFRYNNEDVIHAPYLANQGWYDITKTFNGKDNLLCGAATAGNMLHWWFDQNKTEIEAYLSKHPEKQKIIFNNQELFDLKAAIDTKDSQTNSQLFNYFREKAFPNLSARQLGVMPDLVLDMFINGYYLNVTKTQSTDVNRPYQDKDKRGGIFDAVFTRGDQTKLLTARHDLKNKTLNEISTLIKQELTEGRALALSHTYANVSISHVINLWGADFNAEGNLEAIYVTDSDANASIGMKKYFVGVNAAGHVAISAKKIEGENIGAQVLGLFTLSSGKDIWQKLS
B1 gave an Enzyme Activity Endpoint Assay (purified): Fab'2 of 361 ng/µL, an Enzyme Activity Endpoint Assay (purified): Fc of 162 ng/µL and an Enzyme Activity Endpoint Assay (purified): IgG of 129 ng/µL. The Enzyme Activity Endpoint Assay (purified): scIgG was 111 ng/µL.

B2: PRT-10 (protein)
chain: MANQEIRYSEVTPYTVTSVWTKGVTPPANFTQGEDVFHAPYVANQGWYDITKTFNGKDDLLCGAATAGNMLHWWFDQNKEQIERYLKEHPEKQKINFNGEQMFDVKEAIDTKDSQLDSELFEYFKEKAFPYLSTKHLGVFPDHVIDMFINGYRLSLTNHGPTPVKEGSKDPRGGIFDAVFTRGDQSKLLTSRHDFKEKTLKEISDLIKKELTEGKALALSHTYANVRINHVINLWGADFDSEGNLEAIYVTDSDSNASIGMKKYFVGVNSAGKVAISAKEIEDDNIGAQVLGLFTLSTGQDIWNQTN
B2 gave an Enzyme Activity Endpoint Assay: Fab′2 of 2 ng/µL, an Enzyme Activity Endpoint Assay: Fc of 56 ng/µL and an Enzyme Activity Endpoint Assay: IgG of 32 ng/µL. The Enzyme Activity Endpoint Assay: scIgG was 58 ng/µL.

B3: PRT-119 (protein)
chain: MRNATEAYAKETPKQITSVWTKGVTPPTPEQFRYNNEDVFHAPYVANQGWYDITKTFDGKDNLLCGAATAGNMLHWWFDQNKTEIEKYLSKHPEKQKIIFNNQELFDLKAAIDTKDSQTNSQLFNYFRDKAFPNLSARQLGVMPDLVLDMFINGYYLNVTKTQSTDVNRPYQDKDKRGGIFDAVFTRGDQTKLLTARHDLGNKSLNEISQLIKQELQEGKALALSHTYANVRISHVINLWGADFDAEGNLEAIYVTDSDSNASIGMKKYYVGVNSAGKVAISAKKIEGENIGAQVLGLFTLSSGKDIWQKLS
B3 showed an Enzyme Activity Endpoint Assay (purified): Fab'2 of 15 ng/µL, an Enzyme Activity Endpoint Assay (purified): Fc of 96 ng/µL and an Enzyme Activity Endpoint Assay (purified): IgG of 0 ng/µL. It also gave an Enzyme Activity Endpoint Assay (purified): scIgG of 133 ng/µL.

B4: PRT-122 (protein)
chain: MRNATEAYAKEVPKKITSVWTKGVTPLTPEQFIYQNEDVFHAPYLAHQGWYDITKTFNGKDNLLCGAATAGNMLHWWFDQNKEEIERYLSKHPEKQKIIFNNQELFDLKAAIDTKDSQTNSALFNYFRDKAFPNLSARQLGVMPDLVLDMFINGYYLNVTKTQSTDVNRPYQTKDKRGGIFDAVFTRGDQTKLLTERHDLKNKTLEEISQLIKQELTEGKALGLSHTYANVRISHVINLWGADFDAEGNLEAIYVTDSDSNASIGMKKYFVGVNASGKVAISAKKIEDDNIGAQVLGLFTLSSGKDIWEKLS
Protein B4 has an Enzyme Activity Endpoint Assay (purified): Fab'2 of 565 ng/µL, an Enzyme Activity Endpoint Assay (purified): Fc of 194 ng/µL and an Enzyme Activity Endpoint Assay (purified): IgG of 138 ng/µL. For the same protein, the Enzyme Activity Endpoint Assay (purified): scIgG was 0 ng/µL.

B5: PRT-120 (protein)
chain: MRNATEAYNEETPKQITSVWTKGVTPLTPEDFRYNNEDVFHAPYLANQGWYDITKTFNGKDNLLCGAATAGNMLHWWFDQNKEEIEAYLKKHPEKQKIIFNNQELFDLKAAIDTKDSQTNSQLFNYFKDKAFPNLSARQLGVMPDLVLDMFINGYYLNVNKTQSTDVNRPYQDKDKRGGIFDAVFTRGDQTKLLTERHDLKNKGLNDISTLIKQELTEGKALALSHTYANVSINHVINLWGADFDAEGNLEAIYVTDSDSNESIGMKKYFVGINAAGKVAISAKKIEDENIGAQVLGLFTLSSGKDIWQQLS
For B5, the Enzyme Activity Endpoint Assay (purified): Fab'2 was 92 ng/µL, the Enzyme Activity Endpoint Assay (purified): Fc was 113 ng/µL and the Enzyme Activity Endpoint Assay (purified): IgG was 28 ng/µL. The Enzyme Activity Endpoint Assay (purified): scIgG was 153 ng/µL.

B6: PRT-116 (protein)
chain: MRNATEAYNKATPTTITSVWTKGVTPPTPEQFRYNNEDVFHAPYKAHQGWYDITKTFNGKDNLLCGAATAGNMLHWWFDQNKTEIEAYLSKHPEKQKIIFNNQELFDLKAAIDTKDSQTNSQLFNYFRDKAFPNLSARQLGVMPDLVLDMFINGYYLNVFKTQSTDVNRPYQDKDKRGGIFDAVFTRGDQTKLLTARHDLKDKGLNEISDLIKQELTEGKALALSHTYANVRISHVINLWGADFNAEGNLEAIYVTDSDANASIGMKKYFVGVNSSGHVAISAKKIEGENIGAQVLGLFTLSSGKDIWQKLS
In the case of B6, the Enzyme Activity Endpoint Assay (purified): Fab'2 is reported as 510 ng/µL, the Enzyme Activity Endpoint Assay (purified): Fc is reported as 188 ng/µL and the Enzyme Activity Endpoint Assay (purified): IgG is reported as 0 ng/µL. For the same protein, the Enzyme Activity Endpoint Assay (purified): scIgG was 0 ng/µL.

B7: PRT-121 (protein)
chain: MRNATEAYNEDTPKQITSVWTKGVTPPTPEQFRKYNEDVLHAPYIANQGWYDITKTFNGKDDLLCGAATAGNMLHWWFDQNKTEIEAYLSKYPEKQKIIFNNQELFDLRAAIDTKDSQTNSALFNYFRDKAFPNLSARQLGVMPDLVLDMFINGYYLNVTKTQSTDVNRPYQTKDKRGGIFDAVFTRGDQTTLLTSRHDLKNKTLNEISDLIKQELTEGKALALSHTYANVSISHVINLWGADFNAEGNLEAIYVTDSDANASIGMKKYFVGVNAAGKVAISAKKIEGENIGAQVLGLFTLSTGKDIWEKLS
B7 was tested, and the Enzyme Activity Endpoint Assay (purified): Fab'2 was 447 ng/µL, the Enzyme Activity Endpoint Assay (purified): Fc was 174 ng/µL and the Enzyme Activity Endpoint Assay (purified): IgG was 0 ng/µL. The Enzyme Activity Endpoint Assay (purified): scIgG was 0 ng/µL.

B8: PRT-118 (protein)
chain: MRNATEAYNKETPKTITSVWTKGVTPPTPEQFTKQNEDVFHAPYVANQGWYDITKTFNGKDNLLCGAATAGNMLHWWFDQNKTEIENYLKKHPEKQKIIFNNQELFDLKAAIDTKDSQTNSALFNYFRDKAFPNLSARQLGVMPDHVLDMFINGYYLNVNKTQSTDVNRPYDDKDKRGGIFDAVFTRGDQTTLLTARHDLKNKGLNEISTLIKQELTEGRALALSHTYANVSISHVINLWGADFNAEGNLEAIYVTDSDANASIGMKKYFVGKNASGKVAISAKKIEGDNIGAQVLGLFTLSSGKDIWQKLS
For B8, the Enzyme Activity Endpoint Assay (purified): Fab'2 was 23 ng/µL, the Enzyme Activity Endpoint Assay (purified): Fc was 85 ng/µL and the Enzyme Activity Endpoint Assay (purified): IgG was 0 ng/µL. The Enzyme Activity Endpoint Assay (purified): scIgG was 153 ng/µL.

B9: PRT-124 (protein)
chain: MRNATEAYAKEVPHQITSVWTKGVTPLTPEQFRYNNEDVIHAPYLAHQGWYDITKTFDGKDNLLCGAATAGNMLHWWFDQNKTEIEAYLSKHPEKQKIIFNNQELFDLKAAIDTKDSQTNSQLFNYFRDKAFPNLSARQLGVMPDLVLDMFINGYYLNVFKTQSTDVNRPYQDKDKRGGIFDAVFTRGDQTTLLTARHDLKNKGLNDISTIIKQELTEGKALALSHTYANVSISHVINLWGADFNAEGNLEAIYVTDSDANASIGMKKYFVGVNAHGKVAISAKKIEGENIGAQVLGLFTLSSGKDIWQKLS
With B9 the Enzyme Activity Endpoint Assay (purified): Fab'2 was 676 ng/µL, the Enzyme Activity Endpoint Assay (purified): Fc was 202 ng/µL and the Enzyme Activity Endpoint Assay (purified): IgG was 0 ng/µL. The Enzyme Activity Endpoint Assay (purified): scIgG was 0 ng/µL.

B10: PRT-126 (protein)
chain: B9 chain with H47N, T210D, I211L, A260S, H276A, K278H
For B10, the Enzyme Activity Endpoint Assay (purified): Fab'2 was 472 ng/µL, the Enzyme Activity Endpoint Assay (purified): Fc was 160 ng/µL and the Enzyme Activity Endpoint Assay (purified): IgG was 0 ng/µL. It also gave an Enzyme Activity Endpoint Assay (purified): scIgG of 0 ng/µL.

B11: PRT-125 (protein)
chain: B9 chain with I40F, H47N, T192K, I211L, K278H
For B11, the Enzyme Activity Endpoint Assay (purified): Fab'2 was 609 ng/µL, the Enzyme Activity Endpoint Assay (purified): Fc was 197 ng/µL and the Enzyme Activity Endpoint Assay (purified): IgG was 0 ng/µL. For the same protein, the Enzyme Activity Endpoint Assay (purified): scIgG was 0 ng/µL.

B12: PRT-127 (protein)
chain: B9 chain with H47N, D58N, S90K, D207E, I211L, A260S
Work on B12 yielded an Enzyme Activity Endpoint Assay (purified): Fab'2 of 523 ng/µL, an Enzyme Activity Endpoint Assay (purified): Fc of 140 ng/µL and an Enzyme Activity Endpoint Assay (purified): IgG of 0 ng/µL. For the same protein, the Enzyme Activity Endpoint Assay (purified): scIgG was 0 ng/µL.

B13: PRT-117 (protein)
chain: MRNATEAYAKEVPHTITSVWTKGVTPPTPEQFTYQNEDVFHAPYLANQGWYDITKTFNGKDNLLCGAATAGNMLHWWFDQNKEEIERYLSKHPEKQKIIFNNQELFDLKAAIDTKDSQTNSALFNYFRDKAFPNLSARQLGVMPDLVLDMFINGYYLNVFKTQSTDVNRPYQDKDKRGGIFDAVFTRGDQTTLLTARHDLKNKGLNDISDLIKQELTEGKALALSHTYANVSISHVINLWGADFNAEGNLEAIYVTDSDANASIGMKKYFVGVNTAGKVAISAKKIEGENIGAQVLGLFTLSSGKDIWEQLS
In the case of B13, the Enzyme Activity Endpoint Assay (purified): Fab'2 is reported as 663 ng/µL, the Enzyme Activity Endpoint Assay (purified): Fc is reported as 207 ng/µL and the Enzyme Activity Endpoint Assay (purified): IgG is reported as 0 ng/µL. It also gave an Enzyme Activity Endpoint Assay (purified): scIgG of 0 ng/µL.

B14: PRT-123 (protein)
chain: MRNATEAYNKESPHTITSVWTKGVTPPTPEDFRYNNEDVLHAPYVANQGWYDITKTFDGKDNLLCGAATAGNMLHWWFDQNKEEIERYLKKHPEKQKIIFNNQELFDVKAAIDTKDSQTNSKLFNYFRDKAFPNLSARQLGVMPDLVLDMFINGYYLNLGKTQSTDVNRPYQDKDKRGGIFDAVFTRGDQTTLLTARHDLKNKGLNEISDLIKQELTEGKALALSHTYANVRINHVINLWGADFDAEGNLIAIYVTDSDANASIGMKKYFVGVNANGKVAISAKKIEGDNIGAQVLGLFTLSTGQDIWQKLS
Protein B14 has an Enzyme Activity Endpoint Assay (purified): Fab'2 of 468 ng/µL, an Enzyme Activity Endpoint Assay (purified): Fc of 187 ng/µL and an Enzyme Activity Endpoint Assay (purified): IgG of 0 ng/µL. For the same protein, the Enzyme Activity Endpoint Assay (purified): scIgG was 0 ng/µL.

B15: PRT-113 (protein)
chain: MRNATEAYAKEVPHTITSVWTKGVTPPTPEQFTYYNEDVFHAPYLAHQGWYDITKTFNGKDNLLCGAATAGNMLHWWFDQNKTEIEAYLSKHPEKQKIIFNNQELFDLKAAIDTKDSQTNSQLFNYFKDKAFPNLSARQLGVMPDLVLDMFINGYYLNVFKTQSTDVNRPYQDKDKRGGIFDAVFTRGDQTKLLTARHDLKNKGLNDISDLIKQELTEGKALALSHTYANVSINHVINLWGADFNAEGNLEAIYVTDSDANASIGMKKYFVGINASGKVAISAKKIEGENIGAQVLGLFTLSSGKDIWQKLS
For B15, the Enzyme Activity Endpoint Assay (purified): Fab'2 was 656 ng/µL, the Enzyme Activity Endpoint Assay (purified): Fc was 189 ng/µL and the Enzyme Activity Endpoint Assay (purified): IgG was 0 ng/µL. The Enzyme Activity Endpoint Assay (purified): scIgG was 0 ng/µL.

B16: PRT-115 (protein)
chain: MRNATEAYAKETPKTITSVWTKGVTPPTPEQFRYNGEDVIHAPYLAHQGWYDITKTFDGKDNLLCGAATAGNMLHWWFDQNKTEIERYLKKHPEKQKIIFNNQELFDLKAAIDTKDSQTNSALFNYFRDKAFPNLSARQLGVMPDLVLDMFINGYYLNVTKTQSTDVNRPYQTKDKRGGIFDAVFTRGDQTKLLTARHDLKNKTLNDISTLIKQELTEGKALALSHTYANVSISHVINLWGADFNAEGNLEAIYVTDSDSNASIGMKKYFVGVNAAGKVAISAKKIKGENIGAQVLGLFTLSSGKDIWQKLS
Work on B16 yielded an Enzyme Activity Endpoint Assay (purified): Fab'2 of 124 ng/µL, an Enzyme Activity Endpoint Assay (purified): Fc of 128 ng/µL and an Enzyme Activity Endpoint Assay (purified): IgG of 24 ng/µL. For the same protein, the Enzyme Activity Endpoint Assay (purified): scIgG was 105 ng/µL.
